Source: PMC9170038

Assays:
[1] = tested on: Theophylline aptamer, RNA-MaP condition construct (RNA, aptamer) GGAAAGGCGAGGAUACCAGCGUUCGCGCCCUUGGCAGCCUCGCCAAAGAAACAACAACAACAAC; test: DMS chemical mapping; conditions: 80 mM KCl, 4 mM MgCl2; 100 mM Tris-HCl, pH 7.5, 37 °C
[2] = tested on: Theophylline aptamer, Light-up construct (RNA, aptamer) GGGAACGUCUCCGAGUAGGAGACGAAGGGAGAGUGGCAGCUUACAACCUGAAGGACGGGUCCCCAGUAAUAAUGAUACCAGGAACAAAAGUUCCCCUUGGCAGCAUCUGGGUUGAGUAGAGUGUGAGCAGGAAGUGGGCUGUUGCUUUUCCAAGCUUAUCGAGUAGAUAAGCAAAAAGAAACAACAACAACAAC; test: DMS chemical mapping; conditions: 5 mM MgCl2, 1x PBS, pH 6.1, 24 °C
[3] = biological target: T1, MS2 coat protein, dlFG mutant (Escherichia phage MS2, UniProt P03612, del68-81insG); test: 4 mM Mg2+; no ligand; RNA-MaP array; 100 mM Tris-HCl pH 7.5, 80 mM KCl, 4 mM MgCl2, 0.1 mg/mL BSA, 1 mM DTT, 0.01 mg/mL yeast tRNA, 0.01% Tween-20; protein 1.5 nM to 3 uM; 37 C (Table S3); conditions: chain copies: 2; label: tethered by stalled RNA polymerase
[4] = biological target: T1, MS2 coat protein, dlFG mutant; test: 4 mM Mg2+; FMN 200 uM; RNA-MaP array; 100 mM Tris-HCl pH 7.5, 80 mM KCl, 4 mM MgCl2, 0.1 mg/mL BSA, 1 mM DTT, 0.01 mg/mL yeast tRNA, 0.01% Tween-20; protein 1.5 nM to 3 uM; 37 C (Table S3); conditions: chain copies: 2; label: tethered by stalled RNA polymerase
[5] = biological target: T1, MS2 coat protein, dlFG mutant; test: 4 mM Mg2+; L-tryptophan 2.4 mM; RNA-MaP array; 100 mM Tris-HCl pH 7.5, 80 mM KCl, 4 mM MgCl2, 0.1 mg/mL BSA, 1 mM DTT, 0.01 mg/mL yeast tRNA, 0.01% Tween-20; protein 1.5 nM to 3 uM; 37 C (Table S3); conditions: chain copies: 2; label: tethered by stalled RNA polymerase
[6] = biological target: T1, MS2 coat protein, dlFG mutant; test: 4 mM Mg2+; miR-208a RNA 100 nM (AU…UUGU); RNA-MaP array; 100 mM Tris-HCl pH 7.5, 80 mM KCl, 4 mM MgCl2, 0.1 mg/mL BSA, 1 mM DTT, 0.01 mg/mL yeast tRNA, 0.01% Tween-20; protein 1.5 nM to 3 uM; 37 C (Table S3); conditions: chain copies: 2; label: tethered by stalled RNA polymerase
[7] = biological target: T1, MS2 coat protein, dlFG mutant; test: 4 mM Mg2+; theophylline 2 mM; RNA-MaP array; 100 mM Tris-HCl pH 7.5, 80 mM KCl, 4 mM MgCl2, 0.1 mg/mL BSA, 1 mM DTT, 0.01 mg/mL yeast tRNA, 0.01% Tween-20; protein 1.5 nM to 3 uM; 37 C (Table S3); conditions: chain copies: 2; label: tethered by stalled RNA polymerase

Molecule | Kd [3] [µM] | also measured
Cn1c(=O)c2[nH]cnc2n(C)c1=O | – | Kd [1]: 13.11 ± 9.21/-4.86 μM; Kd [2]: 239.54 ± 161.15/-96.27 μM
Eterna 6049957 (Exclusion 6) (ssRNA) RNA: CUGAGUAGUCAGGAUAUGUGGUACAAAAGUACUGCAGAAGGGAUUACAUGAGGAUCACCCAUGUUUUCUUCAUG | 0.052 | –
Eterna 6108893 (Exclusion NG 1) (ssRNA) RNA: GCGUAAAAUGUAGGAUAUGACACAGGAAACUGGUCAGAAGGACAUGAGGAUCACCCAUGUAAAAUGUUCAAGAAUAACUCAUGC | 0.123 | –
Eterna 6429368 (Inverted Exclusion NG 2) (ssRNA) RNA: AUGUCUUAGUAGAAGGGACAUCGGCUGGUAAGCAUCAUCUCCUUCUCACAUGAGGAUCACCCAUGUCAGGAUAUACUAAGAUAC | 0.0128 | –
Eterna 7724662 (Same State - FMN B) (ssRNA) RNA: GUAUCGCUAGGAGGAUAUUUCAAAUAACAAAUAAAUGGUUAUACGGAGUGAUGUUCCGAUUUACGGAAAGAAGGCCUAGUGAUAC | > 3 | –
Eterna 6457817 (Inverted Small Loop Same State NG 3) (ssRNA) RNA: GCGUAAUAGGUGUAGCUAGUCGUUCAAGAAGGGUGAAGAACAUGAGGAUCACCCAUGUGGUCUAUACAGGAUAUUGAUAUACGC | 0.607 | –
Eterna 6056927 (Brourd's mod of Exclusion 4) (ssRNA) RNA: GGUCCUUCUGUUAGGAUAUGCUAUGGGCUUCCGCAGUAGAAGGAACAUGAGGAUCACCCAUGUCCGAUGCCGUA | 0.0675 | –
Eterna 5956827 (Exclusion NG 2) (ssRNA) RNA: UUUGUUUUGCAAGGAUAUGUUUAAUUUUAGUUUCCUUACACAUGAGGAUCACCCAUGUUAUACUUACAGAAGGUGCGUAAUUUU | – | Kd [4]: 0.094 µM
Eterna 7727988 (Exclusion - Theophylline B) (ssRNA) RNA: GGGAACUCUUACGAUACCAGCCGGAGUGAUGUUCCGCGCUUGGACGUAGUAACCCGCACCGGCCCUUGGCAGCGUGGAUCUUAUA | > 3 | –
Eterna 7681766 (Exclusion - Tryptophan A) (ssRNA) RNA: UGUGAACAAAAGUAGAGUGGACCACUAUAGCGAGGACCGGUACGGCCGCCACUCGUAUAUAAAUUCAGUGAUGUUGAAAAGAGCU | > 3 | –
Eterna 7684615 (Exclusion - Tryptophan A) (ssRNA) RNA: AAAAUUGCGGUCGAUAGAACUUUUUGCUUACGAGGACCGGUACGGCCGCCACUCGAGUCAAGUGAUGUUUGAUUUUCUAUUAUUA | > 3 | –
Eterna 6002686 (Brourd's mod of Exclusion 4) (ssRNA) RNA: UAACAAAUUGUCAGGAUAUCAGUCCCGGCCCAGAUUGAGAAGGGACAUGAGGAUCACCCAUGUAUGAUUCUCAG | 0.0935 | –
Eterna 7691696 (Same State - Theophylline B) (ssRNA) RNA: UGUCAUUGGUCUGAUACCAGAAGAUAAUCUGGAGUGAUGUUCCAAGUACGACAAAGUCGCUUCCCUUGGCAGCAGACCGAUGACU | > 3 | –
Eterna 7733368 (Same State - Tryptophan B) (ssRNA) RNA: GGGUACAUCGCGGCCGCCACUUAUGUAAAUACAUGAGGAUCACCCAUGUCGAUGGAGACAUCGGUAAGGACCGGGUGAUGUACCG | – | Kd [5]: 0.0193 µM
Eterna 9759 (Exclusion 4) (ssRNA) RNA: GUCGAGUGAGGAUAUGGUGAGUAGUGCCUGAGCGCUGCUCACCAGAAGGCACAUGAGGAUCACCCAUGUAUAGC | 0.0167 | –
Eterna 13224 (Sensor for hsa-mir-208a) (ssRNA) RNA: ACCCAAAGUAUAUGGGAACAAGCUUUUUAACAUGAGGAUCACCCAUGUGCUCGUCUUAUAAGCAGUCGAAAGACUGC | – | Kd [6]: 0.0171 µM

Molecule | Kd [3] [µM] | also measured
Eterna 6389671 (Inverted Exclusion NG 2) (ssRNA) RNA: ACUUGUAAGUAGAAGGUAGUCAUUAUAUUAAUCAUGUAAACAUGAGGAUCACCCAUGUAGAGUACUAAGGAUAUACAUCGAUAG | 0.0152 | –
Eterna 7612216 (Same State - Tryptophan B) (ssRNA) RNA: GCUAGGUCAUCGGCCGCCACUAACGACGGUUCCAACAUGAGGAUCACCCAUGUGCCACAUGCGCAUAGGACCGGGAUGACCUAGC | – | Kd [5]: 0.021 µM
Eterna 7684249 (Exclusion - Tryptophan B) (ssRNA) RNA: UUUAUAAUGUCGGCCGCCACUGGAUUAAUAUUUGUAUAAUCUAGUUCUGAGUGAUGUUUAGAGUCCAGGACCGGGACAUUUGUUA | > 3 | –
Eterna 11920 (Sensor v3, turn-off variant 2) (ssRNA) RNA: UUUAAACUUACAAUCUUCGCUGGCAUGCUUGUGCCAGCUACAUGAGGAUCACCCAUGUUUUUUGCUCGUCUUAUUCU | – | Kd [6]: 0.095 µM
Eterna 6443759 (Same State NG 2) (ssRNA) RNA: AUUAUAAUUGAAGGAUAUCUAUAUCCAACAUGAGGAUCACCCAUGUUGAGGAUCACCCAUGUAAAGGAGAAGGUUAAUUAUAAU | 0.101 | –
Eterna 6420697 (Small Loop Exclusion NG 3) (ssRNA) RNA: AUCGUUGACUGGACGAGAAUAGGGCAGGAUAUACAUGAGGAUCACCCAUGUGAAGCACGAAAGAGGUAGAAGGGCCCACGUCAU | 0.0161 | –
Eterna 6411926 (Small Loop Same State NG 1) (ssRNA) RNA: GUAUUUAGAUAAGGAUAUAAGUCUAUGACAUGAGGAUCACCCAUGUGUGUCUUAGAAGGUAUUUGGGUAAUAUUGUUACAGUAA | 0.0442 | –
Eterna 6136258 (Same State NG 2) (ssRNA) RNA: UAAUCUCAGAUAGGAUAUAUAGGAUAACUUAAGACCUAACAUGAGGAUCACCCAUGUGAUUAUUCGUAGAAGGAUCAUUGACCC | 0.162 | –
Eterna 6063666 (Exclusion 4) (ssRNA) RNA: UAUGUGUCAGGAUAUUGUUAAUUUAGUUGUUUGUAUUAGUUCGAGAAGGGACAUGAGGAUCACCCAUGUUGUUU | – | Kd [4]: 0.0311 µM
Eterna 15621 (Same State 1) (ssRNA) RNA: GCAUCACAUGAGGAUCACCCAUGUCUUCGGAGCGGAGGAUAUGGUCACUGUAAACAGUGGCCAGAAGGCUGGAUGC | 0.0324 | –
Eterna 1282 (Exclusion - Tryptophan B) (ssRNA) RNA: GGAUUGCGUUCGGCCGCCACUAGACUACAUUCCACGCCCGACCCGUUUUUAAGUGAUGUUUAAACUAGGACCGGGAACCGAUUUC | > 3 | –
Eterna 7730944 (Same State - Tryptophan A) (ssRNA) RNA: UAAAACGCUUGAAUAACAAGCGAAAAUUCGCGAGGACCGGUACGGCCGCCACUCGCUAACUGCGAGUGAUGUUCGAUAAUAAAAU | > 3 | –
Eterna 7747481 (Same State - Arginine B) (ssRNA) RNA: GCCGUAGAUUGAAGGAGCGACAUAAACGAUGUUCUGGUAGUGAUGUUACCUUAGCAGGCAUGUCAGGUAGGUCGCAAUCUACGGC | > 3 | –
Eterna 5958224 (Same State NG 3) (ssRNA) RNA: CGAGGCGUACAUGAGGAUCACCCAUGUACCUAACAACAAAGCAAGGAUAUCCUGGCUAUAAUACAGGAGAAGGUGUGGUCCUUA | 0.135 | –
Eterna 7672552 (Same State - Tryptophan A) (ssRNA) RNA: UAAGAAUAAGUAGCAGUGAUGUUGCUACUACGAGGACCGGUACGGCCGCCACUCGAGUCCUCGAAACAUCACUGAACGAGGAAUA | > 3 | –
Eterna 7623315 (Exclusion - Theophylline A) (ssRNA) RNA: AUUAUCAUGGUCAUAUAUAUUUCGUCAGAUACCAGACUAGAUAUAGUCCCUUGGCAGCUGUUACAUGAGGAUCACCCAUGUUAUA | – | Kd [7]: 0.0458 µM
